Results from PMC6082575.

Legend:
[1] = biological target: C-X-C chemokine receptor type 4 (mouse, on cultured hippocampal neurons) (mouse (endogenous in cultured hippocampal neurons)) (UniProt P70658)
[2] = biological target: C-X-C chemokine receptor type 4 (feline, on cultured hippocampal neurons) (cat (endogenous in cultured feline hippocampal neurons)) (UniProt P56498)
[3] = biological target: C-X-C chemokine receptor type 4 (mouse, on cultured hippocampal neurons) (mouse (endogenous in cultured hippocampal neurons)) (UniProt P70658); remark: listed apart in the source

Chain of UniProt P70658 (P70658 whole entry): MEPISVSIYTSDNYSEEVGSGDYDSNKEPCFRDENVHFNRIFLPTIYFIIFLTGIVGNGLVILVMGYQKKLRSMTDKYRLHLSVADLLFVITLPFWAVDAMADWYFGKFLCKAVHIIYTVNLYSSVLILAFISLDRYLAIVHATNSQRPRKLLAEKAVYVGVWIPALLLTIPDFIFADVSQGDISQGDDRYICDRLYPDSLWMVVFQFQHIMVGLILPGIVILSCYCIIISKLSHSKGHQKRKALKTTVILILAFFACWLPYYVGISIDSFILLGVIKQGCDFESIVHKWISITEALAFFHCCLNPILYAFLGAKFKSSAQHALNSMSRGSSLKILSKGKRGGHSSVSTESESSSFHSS
Chain of UniProt P56498 (P56498 whole entry): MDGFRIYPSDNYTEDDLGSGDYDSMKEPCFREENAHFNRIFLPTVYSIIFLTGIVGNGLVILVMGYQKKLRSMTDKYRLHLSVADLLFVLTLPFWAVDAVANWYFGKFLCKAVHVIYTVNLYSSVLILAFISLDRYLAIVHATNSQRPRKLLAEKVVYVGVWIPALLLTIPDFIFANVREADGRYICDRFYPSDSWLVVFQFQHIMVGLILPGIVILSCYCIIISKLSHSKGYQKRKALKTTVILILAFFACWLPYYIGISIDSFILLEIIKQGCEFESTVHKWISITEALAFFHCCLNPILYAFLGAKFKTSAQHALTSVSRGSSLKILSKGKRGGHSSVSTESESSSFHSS

HIV-1 IIIB gp120 Recombinant Protein (from UniProt P04578 33-511) (ligand)
normalised total Ca2+ activity (GCaMP5 imaging) in cultured mouse hippocampal neurons treated with 1-nM gp120 (IIIB) and 200-nM AMD3100 (CXCR4 antagonist) [1]: 0.85 ΔF/Fmin

FIV envelope glycoprotein gp95 (Fc fusion)
normalised total Ca2+ activity (GCaMP5 imaging) in cultured feline hippocampal neurons treated with 1-nM gp95 and 200-nM AMD3100 (CXCR4 antagonist) [2]: 0.99 ΔF/Fmin
normalised total Ca2+ activity (GCaMP5 imaging) in cultured mouse hippocampal neurons treated with 1-nM gp95 and 200-nM AMD3100 (CXCR4 antagonist) [3]: 1.18 ΔF/Fmin

stromal cell-derived factor-1 (from UniProt P48061 22-93) (ligand)
normalised total Ca2+ activity (GCaMP5 imaging) in cultured mouse hippocampal neurons treated with 20-nM SDF-1 and 200-nM AMD3100 (CXCR4 antagonist) [1]: 1.26 ΔF/Fmin
